Measurements reported in US20110059889A1 (SYNTONIX PHARMACEUTICALS, published 2011).
Where two headings read alike, the source gives them in different places. Bridge positions count the residues as written; N and C are the ends. Square brackets hold non-standard residues; d marks the D form. Ends that are not written are not given here. Phe(2-Me) = Cc1ccccc1C[C@H](N)C(=O)O; NMeY = CN[C@@H](Cc1ccc(O)cc1)C(=O)O; NMeL = CN[C@@H](CC(C)C)C(=O)O; Pen = CC(C)(S)[C@H](N)C(=O)O; Sar = CNCC(=O)O

What was measured:
[1] = target: T1, soluble human FcRn (shFcRn) (human, UniProt P55899 24-297; P61769 21-119); experiment: IgG competition ELISA
T1 construct: Biotinylated for the ELISA, amine-coupled to a CM5 chip for SPR; also called biotinylated shFcRn
Protocol: (§1) The wells were coated with 100 μl/well of 1 μg/ml biotinylated-shFcRn in Buffer A. The plate was sealed and incubated at 37° C. for 2 hours. Afterwards, the plate was washed with 200 μl/well of Buffer B (Buffer B: 100 mM MES pH 6, 150 mM NaCl, 0.5% BSA IgG-free (Jackson ImmunoResearch, West Grove, Pa.), 0.05% Tween-20). […] To allow for mixing, the plate was rocked for 2 minutes, sealed and incubated at 37° C. for 2 hours. […] The plate was covered, incubated for 30 minutes at room temperature and washed 4 times with 200 μl/well of ice-cold buffer B. SureBlue TMB substrate solution (100 μl/well, KPL, Gaithersburg, Md.) was added and the plate was allowed to incubate at room temperature until color developed, which took 5 to 10 minutes. Once color developed, 100 μl/well of TMB stop solution (KPL, Gaithersburg, Md.) was added and the absorbance was measured at 450 nm. The data was plotted as absorbance vs. peptide concentration to derive the inhibitory concentration 50% (IC₅₀) values.

[2] = target: T1, soluble human FcRn (shFcRn); experiment: SPR pH 6; Peptide No. 74: Pen, G and lower-case a (QRF-Pen-TGHF-G-a-LYPCNGP)
Protocol: (§2) The following steps were performed to cross-link soluble human or cynomolgus FcRn to the dextran surface of a CM5 sensor chip (Biacore AB, Uppsala, Sweden) by an amine coupling reaction involving 1-ethyl-(3-dimethylaminopropyl)-carbodiimide hydrochloride (EDC) (Biacore AB, Uppsala, Sweden) and N-hydroxysuccinimide (NHS) (Biacore AB, Uppsala, Sweden) as recommended by Biacore (BIAapplications Handbook, version AB, section 4.2, Biacore AB, Uppsala, Sweden). […] Residual sites on the FcRn flow cell were blocked with 1 M ethanolamine hydrochloride pH 8.5 (Biacore AB, Uppsala, Sweden). A control flow cell was blocked with ethanolamine for reference subtraction. For analysis of the monomeric peptides, FcRn was coated to a final density of 4000-5000 response units (RU). For analysis of the peptide dimers, FcRn was coated to a density of 2000-2500 RU. All SPR measurements were performed using a BIACORE 3000 Instrument (Biacore AB Uppsala, Sweden). For measurements done at either pH 6 or pH 7.4, experiments were performed in 50 mM phosphate, 100 mM sodium chloride, 0.01% surfactant P20 (Biacore AB, Uppsala, Sweden).
(§3) Ten, 2-fold dilutions of the peptide were injected over the FcRn-CM5 chip at a rate of 20 μl/min for 2 min. The peptide was dissociated from the chip for 2.5 minutes with buffer. […] Sensorgrams were generated and analyzed using BiaEval software version 3.1 (Biacore AB, Uppsala, Sweden). […]

[3] = target: T1, soluble human FcRn (shFcRn); experiment: SPR pH 6; Peptide No. 75: Pen, lower-case a-G (QRF-Pen-TGHF-a-G-LYPCNGP)
Protocol: as §2, §3

[4] = target: T1, soluble human FcRn (shFcRn); experiment: SPR pH 6; Peptide No. 189: Pen, lower-case a, Sar (QRF-Pen-TGHF-a-Sar-LYPCNGP)
Protocol: as §2, §3

[5] = target: T1, soluble human FcRn (shFcRn); experiment: IgG competition ELISA; remark: listed apart in the source
Protocol: as §1

[6] = target: T1, soluble human FcRn (shFcRn); experiment: SPR pH 7.4
Protocol: as §2, §3

[7] = target: T1, soluble human FcRn (shFcRn); experiment: SPR pH 6
Protocol: as §2
(§4) Ten, 2-fold dilutions of the peptide were injected over the FcRn-CM5 chip at a rate of 20 μl/min for 2 min. The peptide was dissociated from the chip for 2.5 minutes with buffer. Any remaining peptide was removed from the chip with a 30 second injection of HBS-P buffer (Biacore AB, Uppsala, Sweden) at a rate of 30 μl/min. Sensorgrams were generated and analyzed using BiaEval software version 3.1 (Biacore AB, Uppsala, Sweden). The equilibrium RU observed for each injection was plotted against concentration. The equilibrium KD values were derived by analysis of the plots using the steady state affinity model included in the BiaEval software.

[8] = target: T1, soluble human FcRn (shFcRn); experiment: SPR pH 6; Peptide No. 114: Pen, NMeTyr (QRF-Pen-TGHFGGL-NMeTyr-PCNGP)
Protocol: as §2, §3

[9] = target: T1, soluble human FcRn (shFcRn); experiment: IgG competition ELISA; remark: listed apart in the source
Protocol: as §1

[10] = target: T1, soluble human FcRn (shFcRn); experiment: SPR pH 6; Peptide No. 88: Pen, 2-MePhe for Phe (QRF-Pen-TGH-(2-MePhe)-…)
Protocol: as §2, §3

[11] = target: T1, soluble human FcRn (shFcRn); experiment: IgG competition ELISA; remark: listed apart in the source
Protocol: as §1

[12] = target: T1, soluble human FcRn (shFcRn); experiment: SPR pH 7.4; remark: listed apart in the source
Protocol: as §2, §3

[13] = target: T1, soluble human FcRn (shFcRn); experiment: SPR pH 6; remark: listed apart in the source
Protocol: as §2, §4

[14] = target: T1, soluble human FcRn (shFcRn); experiment: SPR pH 6; Peptide No. 113: Pen, NMeLeu (QRF-Pen-TGHFGG-NMeLeu-YPCNGP)
Protocol: as §2, §3

[15] = target: T1, soluble human FcRn (shFcRn); experiment: SPR pH 6; Peptide No. 94: Pen, PheNHAc for Phe (QRF-Pen-TGH-(PheNHAc)-…)
Protocol: as §2, §3

[16] = target: T1, soluble human FcRn (shFcRn); experiment: SPR pH 7.4; Peptide No. 146: Pen for Cys and NMeLeu for Leu (RF-Pen-TGHFGG-NMeLeu-YPCNGP)
Protocol: as §2, §3

[17] = target: T1, soluble human FcRn (shFcRn); experiment: IgG competition ELISA; remark: listed apart in the source
Protocol: as §1

[18] = target: T1, soluble human FcRn (shFcRn); experiment: SPR pH 6; remark: listed apart in the source
Protocol: as §2, §3

T1 sequence (P55899 24-297 limits assumed, chain 1 of 2): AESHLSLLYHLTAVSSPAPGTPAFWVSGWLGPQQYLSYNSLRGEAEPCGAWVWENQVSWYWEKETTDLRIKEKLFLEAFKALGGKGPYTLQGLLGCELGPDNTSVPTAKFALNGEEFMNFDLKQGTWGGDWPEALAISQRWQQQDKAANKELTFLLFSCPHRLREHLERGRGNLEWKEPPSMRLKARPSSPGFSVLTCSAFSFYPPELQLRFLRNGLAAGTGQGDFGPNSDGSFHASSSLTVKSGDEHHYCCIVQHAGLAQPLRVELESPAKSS
T1 sequence (P61769 21-119 limits assumed, chain 2 of 2): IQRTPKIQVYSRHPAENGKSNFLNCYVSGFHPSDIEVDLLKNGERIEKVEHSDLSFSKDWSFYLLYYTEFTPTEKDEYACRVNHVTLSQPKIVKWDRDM

B1: Peptide No. 74 (peptide)
peptide: QRF[Pen]TGHFG[dA]LYPCNGP-NH2
modifications: disulfide 4-14; N-terminus assumed
SMILES: CC(C)C[C@@H]1NC(=O)[C@@H](C)NC(=O)CNC(=O)[C@H](Cc2ccccc2)NC(=O)[C@H](Cc2c[nH]cn2)NC(=O)CNC(=O)[C@H]([C@@H](C)O)NC(=O)[C@@H](NC(=O)[C@H](Cc2ccccc2)NC(=O)[C@H](CCCNC(=N)N)NC(=O)[C@@H](N)CCC(N)=O)C(C)(C)SSC[C@@H](C(=O)N[C@@H](CC(N)=O)C(=O)NCC(=O)N2CCC[C@H]2C(N)=O)NC(=O)[C@@H]2CCCN2C(=O)[C@H](Cc2ccc(O)cc2)NC1=O
With B1 the IC50 [1] was 2000 nM and the Kd [2] was 480 nM.

B2: Peptide No. 75 (peptide)
peptide: QRF[Pen]TGHF[dA]GLYPCNGP-NH2
modifications: disulfide 4-14; N-terminus assumed
SMILES: CC(C)C[C@@H]1NC(=O)CNC(=O)[C@@H](C)NC(=O)[C@H](Cc2ccccc2)NC(=O)[C@H](Cc2c[nH]cn2)NC(=O)CNC(=O)[C@H]([C@@H](C)O)NC(=O)[C@@H](NC(=O)[C@H](Cc2ccccc2)NC(=O)[C@H](CCCNC(=N)N)NC(=O)[C@@H](N)CCC(N)=O)C(C)(C)SSC[C@@H](C(=O)N[C@@H](CC(N)=O)C(=O)NCC(=O)N2CCC[C@H]2C(N)=O)NC(=O)[C@@H]2CCCN2C(=O)[C@H](Cc2ccc(O)cc2)NC1=O
With B2 the Kd [3] was 490 nM.

B3: Peptide No. 189 (peptide)
peptide: QRF[Pen]TGHF[dA][Sar]LYPCNGP-NH2
modifications: disulfide 4-14; N-terminus assumed
SMILES: CC(C)C[C@@H]1NC(=O)CN(C)C(=O)[C@@H](C)NC(=O)[C@H](Cc2ccccc2)NC(=O)[C@H](Cc2c[nH]cn2)NC(=O)CNC(=O)[C@H]([C@@H](C)O)NC(=O)[C@@H](NC(=O)[C@H](Cc2ccccc2)NC(=O)[C@H](CCCNC(=N)N)NC(=O)[C@@H](N)CCC(N)=O)C(C)(C)SSC[C@@H](C(=O)N[C@@H](CC(N)=O)C(=O)NCC(=O)N2CCC[C@H]2C(N)=O)NC(=O)[C@@H]2CCCN2C(=O)[C@H](Cc2ccc(O)cc2)NC1=O
B3 was tested, and the Kd [4] was 190 nM.

B4: Peptide No. 296 (peptide)
peptide: QRF[Pen]HGHFGGLYPCNGP-NH2
modifications: disulfide 4-14; N-terminus assumed
SMILES: CC(C)C[C@@H]1NC(=O)CNC(=O)CNC(=O)[C@H](Cc2ccccc2)NC(=O)[C@H](Cc2c[nH]cn2)NC(=O)CNC(=O)[C@H](Cc2c[nH]cn2)NC(=O)[C@@H](NC(=O)[C@H](Cc2ccccc2)NC(=O)[C@H](CCCNC(=N)N)NC(=O)[C@@H](N)CCC(N)=O)C(C)(C)SSC[C@@H](C(=O)N[C@@H](CC(N)=O)C(=O)NCC(=O)N2CCC[C@H]2C(N)=O)NC(=O)[C@@H]2CCCN2C(=O)[C@H](Cc2ccc(O)cc2)NC1=O
With B4 the IC50 [5] was 3000 nM, the Kd [6] was 960 nM and the Kd [7] was 150 nM.

B5: Peptide No. 114 (peptide)
peptide: QRF[Pen]TGHFGGL[NMeY]PCNGP-NH2
modifications: disulfide 4-14; N-terminus assumed
SMILES: CC(C)C[C@@H]1NC(=O)CNC(=O)CNC(=O)[C@H](Cc2ccccc2)NC(=O)[C@H](Cc2c[nH]cn2)NC(=O)CNC(=O)[C@H]([C@@H](C)O)NC(=O)[C@@H](NC(=O)[C@H](Cc2ccccc2)NC(=O)[C@H](CCCNC(=N)N)NC(=O)[C@@H](N)CCC(N)=O)C(C)(C)SSC[C@@H](C(=O)N[C@@H](CC(N)=O)C(=O)NCC(=O)N2CCC[C@H]2C(N)=O)NC(=O)[C@@H]2CCCN2C(=O)[C@H](Cc2ccc(O)cc2)N(C)C1=O
Work on B5 yielded a Kd [8] of 92000 nM.

B6: Peptide No. 88 (peptide)
peptide: QRF[Pen]TGH[Phe(2-Me)]GGLYPCNGP-NH2
modifications: disulfide 4-14; N-terminus assumed
SMILES: Cc1ccccc1C[C@@H]1NC(=O)[C@H](Cc2c[nH]cn2)NC(=O)CNC(=O)[C@H]([C@@H](C)O)NC(=O)[C@@H](NC(=O)[C@H](Cc2ccccc2)NC(=O)[C@H](CCCNC(=N)N)NC(=O)[C@@H](N)CCC(N)=O)C(C)(C)SSC[C@@H](C(=O)N[C@@H](CC(N)=O)C(=O)NCC(=O)N2CCC[C@H]2C(N)=O)NC(=O)[C@@H]2CCCN2C(=O)[C@H](Cc2ccc(O)cc2)NC(=O)[C@H](CC(C)C)NC(=O)CNC(=O)CNC1=O
B6 gave an IC50 [9] of 1000 nM and a Kd [10] of 200 nM.

B7: Peptide No. 147 (peptide)
peptide: RF[Pen]TGHFG[Sar]YPCNGP-NH2
modifications: disulfide 3-12; N-terminus assumed
SMILES: C[C@@H](O)[C@@H]1NC(=O)[C@@H](NC(=O)[C@H](Cc2ccccc2)NC(=O)[C@@H](N)CCCNC(=N)N)C(C)(C)SSC[C@@H](C(=O)N[C@@H](CC(N)=O)C(=O)NCC(=O)N2CCC[C@H]2C(N)=O)NC(=O)[C@@H]2CCCN2C(=O)[C@H](Cc2ccc(O)cc2)NC(=O)CN(C)C(=O)CNC(=O)[C@H](Cc2ccccc2)NC(=O)[C@H](Cc2c[nH]cn2)NC(=O)CNC1=O
notes: copied as printed (RF-Pen-TGHFG-Sar-YPCNGP); a Leu after Sar may be missing in the print
In the case of B7, the IC50 [11] is reported as 1000 nM, the Kd [12] is reported as 350 nM and the Kd [13] is reported as 58 nM.

B8: Peptide No. 113 (peptide)
peptide: QRF[Pen]TGHFGG[NMeL]YPCNGP-NH2
modifications: disulfide 4-14; N-terminus assumed
SMILES: CC(C)C[C@H]1C(=O)N[C@@H](Cc2ccc(O)cc2)C(=O)N2CCC[C@H]2C(=O)N[C@H](C(=O)N[C@@H](CC(N)=O)C(=O)NCC(=O)N2CCC[C@H]2C(N)=O)CSSC(C)(C)[C@H](NC(=O)[C@H](Cc2ccccc2)NC(=O)[C@H](CCCNC(=N)N)NC(=O)[C@@H](N)CCC(N)=O)C(=O)N[C@@H]([C@@H](C)O)C(=O)NCC(=O)N[C@@H](Cc2c[nH]cn2)C(=O)N[C@@H](Cc2ccccc2)C(=O)NCC(=O)NCC(=O)N1C
For B8, the Kd [14] was 86 nM and the IC50 [11] was 1600 nM.

B9: Peptide No. 94 (peptide)
peptide: QRF[Pen]TGH[Phe(4-NHAc)]GGLYPCNGP-NH2
modifications: disulfide 4-14
In the case of B9, the Kd [15] is reported as 270000 nM.

B10: Peptide No. 146 (peptide)
peptide: RF[Pen]TGHFGG[NMeL]YPCNGP-NH2
modifications: disulfide 3-13; N-terminus assumed
SMILES: CC(C)C[C@H]1C(=O)N[C@@H](Cc2ccc(O)cc2)C(=O)N2CCC[C@H]2C(=O)N[C@H](C(=O)N[C@@H](CC(N)=O)C(=O)NCC(=O)N2CCC[C@H]2C(N)=O)CSSC(C)(C)[C@H](NC(=O)[C@H](Cc2ccccc2)NC(=O)[C@@H](N)CCCNC(=N)N)C(=O)N[C@@H]([C@@H](C)O)C(=O)NCC(=O)N[C@@H](Cc2c[nH]cn2)C(=O)N[C@@H](Cc2ccccc2)C(=O)NCC(=O)NCC(=O)N1C
Binder B10 has a Kd [16] of 280 nM, an IC50 [11] of 2100 nM and a Kd [13] of 59 nM.

B11: Peptide No. 67 (peptide)
peptide: QRFCTGHFGGLXPCNGP
modifications: Pen 4; 3-pyridylAla 12; disulfide 4-14; C-terminal amide
In the case of B11, the IC50 [17] is reported as 92000 nM and the Kd [18] is reported as 34000 nM.
